Test results reported in patent US20180179267A1 (published 2018).

Experiments:
HlgB = target: T1, HlgB; assay: MSD solution equilibrium; Fab
T1 chain: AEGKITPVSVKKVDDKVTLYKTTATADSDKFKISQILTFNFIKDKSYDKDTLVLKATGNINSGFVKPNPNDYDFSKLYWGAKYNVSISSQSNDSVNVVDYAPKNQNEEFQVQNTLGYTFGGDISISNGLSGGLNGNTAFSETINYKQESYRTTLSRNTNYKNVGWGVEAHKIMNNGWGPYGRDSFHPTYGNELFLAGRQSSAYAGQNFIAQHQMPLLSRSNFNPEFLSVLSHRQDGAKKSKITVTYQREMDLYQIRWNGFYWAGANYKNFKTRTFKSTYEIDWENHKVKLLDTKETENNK

LukD = target: T2, LukD; assay: MSD solution equilibrium; Fab
T2 chain: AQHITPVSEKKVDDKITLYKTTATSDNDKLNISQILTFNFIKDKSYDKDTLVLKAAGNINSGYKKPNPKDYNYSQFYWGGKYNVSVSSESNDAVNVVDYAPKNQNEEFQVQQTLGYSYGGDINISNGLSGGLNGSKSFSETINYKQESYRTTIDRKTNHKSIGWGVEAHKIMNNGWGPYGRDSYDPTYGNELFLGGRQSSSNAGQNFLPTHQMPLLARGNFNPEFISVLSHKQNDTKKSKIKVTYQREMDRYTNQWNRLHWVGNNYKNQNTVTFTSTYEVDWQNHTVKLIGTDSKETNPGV

LukF = target: T3, LukF; assay: MSD solution equilibrium; Fab
T3 chain: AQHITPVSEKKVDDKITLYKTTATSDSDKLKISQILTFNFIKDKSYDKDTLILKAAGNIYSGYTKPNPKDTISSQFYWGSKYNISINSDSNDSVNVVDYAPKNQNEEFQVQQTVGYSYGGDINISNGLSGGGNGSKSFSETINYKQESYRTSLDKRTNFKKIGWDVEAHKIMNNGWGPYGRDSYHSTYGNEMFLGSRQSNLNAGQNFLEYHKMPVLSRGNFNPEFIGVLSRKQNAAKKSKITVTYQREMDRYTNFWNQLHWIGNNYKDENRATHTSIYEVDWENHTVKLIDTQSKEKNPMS

Hla = target: T4, Hla
T4 chain: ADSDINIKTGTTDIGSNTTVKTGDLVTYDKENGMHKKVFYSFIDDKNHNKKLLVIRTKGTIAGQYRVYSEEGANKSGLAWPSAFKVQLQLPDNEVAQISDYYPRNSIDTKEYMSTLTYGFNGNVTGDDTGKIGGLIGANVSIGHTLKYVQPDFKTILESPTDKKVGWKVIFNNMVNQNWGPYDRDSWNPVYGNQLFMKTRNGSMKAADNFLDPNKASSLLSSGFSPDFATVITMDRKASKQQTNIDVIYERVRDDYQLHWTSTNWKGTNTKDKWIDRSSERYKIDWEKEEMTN

B1: AB-28-6 (antibody, V domains shown)
VH: QVQLQESGPGLVRPSETLSLTCAVSGYSISSGMGWGWIRQPPGKGLEWIGSIDQRGSTYYNPSLKSRVTISVDTSKNQFSLKLSSVTAADTAVYYCARDAGHAVDMDVWGKGTTVTVSS
VL: DIQMTQSPSSVSASVGDRVTITCRASQGISRWLAWYQQKPGKAPKLLIYAASSLQSGVPSRFSGSGSGTDFTLTISSLQPEDFATYYCQQGYVFPLTFGGGTKVEIK
**Q.** With B1 as the binder, how does the Kd (HlgB) read?
**A.** The Kd was 0.0025 nM.

**Q.** What about the Kd (LukD) of the same binder?
**A.** Its Kd is 0.4 nM.

**Q.** What about the Kd (LukF) of the same binder?
**A.** Its Kd is 0.016 nM.

**Q.** And the Kd (Hla)?
**A.** The Kd was less than 0.002 nM.

B2: AB-28 (antibody, V domains shown)
VH: QVQLQESGPGLVKPSETLSLTCAVSGYSISSGMGWGWIRQPPGKGLEWIGSIDQRGSTYYNPSLKSRVTISVDTSKNQFSLKLSSVTAADTAVYYCARDAGHGVDMDVWGKGTTVTVSS
VL: DIQMTQSPSSVSASVGDRVTITCRASQGISRWLAWYQQKPGKAPKLLIYAASSLQSGVPSRFSGSGSGTDFTLTISSLQPEDFATYYCQQGYVFPLTFGGGTKVEIK
**Q.** Which Kd (HlgB) does the source give for B2 here?
**A.** The Kd was 0.005 nM.

**Q.** And the Kd (LukD)?
**A.** The Kd was 2.2 nM.

**Q.** What about the Kd (LukF) of the same binder?
**A.** The Kd was 0.13 nM.

**Q.** And the Kd (Hla)?
**A.** The Kd was less than 0.002 nM.

B3: AB-28-13 (antibody, V domains shown)
VH: QVQLQESGPGLVKPSETLSLTCAVSGYSISSGMGWDWIRQPPGKGLEWIGSIDQRGSTYYNPSLEGRATISVDTSKNQFSLKLSSVTAADTAVYYCARDAGHGVDMDVWGKGTTVTVSS
VL: DIQMTQSPSSVSASVGDRVTITCRASQGISRWLAWYQQKPGKAPKLLIYAASSLQSGVPSRFSGSGSGTDFTLTISSLQPEDFATYYCQQGYVFPLTFGGGTKVEIK
**Q.** With B3 as the binder, how does the Kd (HlgB) read?
**A.** The Kd was 0.003 nM.

**Q.** And the Kd (LukD)?
**A.** Its Kd is 0.79 nM.

**Q.** What about the Kd (LukF) of the same binder?
**A.** Its Kd is 0.089 nM.

**Q.** And the Kd (Hla)?
**A.** Its Kd is less than 0.002 nM.

B4: AB-28-11 (antibody, V domains shown)
VH: QVQLQESGPGLVKPSETLSLTCAVSGYSISSGMGWDWIRQPPGKGLEWIGSIDQRGSTYYNPSLEGRVTISVDTSKNQFSLKLSSVTAADTAVYYCARDAGHGVDMDVWGKGTTVTVSS
VL: DIQMTQSPSSVSASVGDRVTITCRASQGISRWLAWYQQKPGKAPKLLIYAASSLQSGVPSRFSGSGSGTDFTLTISSLQPEDFATYYCQQGYVFPLTFGGGTKVEIK
**Q.** With B4 as the binder, how does the Kd (HlgB) read?
**A.** The Kd was 0.003 nM.

**Q.** What about the Kd (LukD) of the same binder?
**A.** The Kd was 1.2 nM.

**Q.** And the Kd (LukF)?
**A.** Its Kd is 0.071 nM.

**Q.** What about the Kd (Hla) of the same binder?
**A.** The Kd was less than 0.002 nM.

B5: AB-28-4 (antibody, V domains shown)
VH: QVQLQESGPGLVKPSETLSLTCAVSGYPISSGMGWGWIRQPPGKGLEWIGRIDQRGSTYYNPSLKSRATISVDTSKNQFSLKLSSVTAADTAVYYCARDAGHGVDMDVWGKGTTVTVSS
VL: DIQMTQSPSSVSASVGDRVTITCRASQGISRWLAWYQQKPGKAPKLLIYAASSLQSGVPSRFSGSGSGTDFTLTISSLQPEDFATYYCQQGYVFPLTFGGGTKVEIK
**Q.** How did the Kd (HlgB) turn out when B5 was run?
**A.** Its Kd is 0.14 nM.

**Q.** What about the Kd (LukD) of the same binder?
**A.** The Kd was 0.086 nM.

**Q.** What about the Kd (Hla) of the same binder?
**A.** Its Kd is 0.023 nM.

B6: AB-28-8 (antibody, V domains shown)
VH: QVQLQESGPGLVKPSETLSLTCAVSGYSISSGMGWDWIRQPPGKGLEWIGSIDQRGSTYYNPPLESRVTISVDTSKNQFSLKLSSVTAADTAVYYCARDAGHGVDMDVWGKGTTVTVSS
VL: DIQMTQSPSSVSASVGDRVTITCRASQGISRWLAWYQQKPGKAPKLLIYAASSLQSGVPSRFSGSGSGTDFTLTISSLQPEDFATYYCQQGYVFPLTFGGGTKVEIK
**Q.** With B6 as the binder, how does the Kd (HlgB) read?
**A.** Its Kd is 0.002 nM.

**Q.** And the Kd (LukD)?
**A.** Its Kd is 0.78 nM.

**Q.** What about the Kd (LukF) of the same binder?
**A.** Its Kd is 0.046 nM.

**Q.** And the Kd (Hla)?
**A.** The Kd was less than 0.002 nM.

B7: AB-28-9 (antibody, V domains shown)
VH: EVQLQESGPGLVRPSETLSLTCAVSGYSISSGMGWGWIRQPPGKGLEWIGSIDQRGSTYYNPSLKSRVTISVDTSKNQFSLKLSSVTAADTAVYYCARDAGHAVDMDVWGKGTTVTVSS
VL: DIQMTQSPSSVSASVGDRVTITCRASQGISRWLAWYQQKPGKAPKLLIYAASSLQSGVPSRFSGSGSGTDFTLTISSLQPEDFATYYCQQGYVFPLTFGGGTKVEIK
**Q.** Which Kd (HlgB) does the source give for B7 here?
**A.** Its Kd is 0.005 nM.

**Q.** What about the Kd (LukD) of the same binder?
**A.** Its Kd is 2.2 nM.

**Q.** What about the Kd (LukF) of the same binder?
**A.** The Kd was 0.13 nM.

**Q.** And the Kd (Hla)?
**A.** The Kd was less than 0.002 nM.

B8: AB-28-3 (antibody, V domains shown)
VH: QVQLQESGPGLVKPSETLSLTCAVSGYSISSGMGWGWIRQPPGKGLEWIGSVDQRGSTYYNPSLKSRVTISVDTSKNQFSLKLSSVTAADTAVYYCARDAGHGADMDVWGKGTTVTVSS
VL: DIQMTQSPSSVSASVGDRVTITCRASQGISRWLAWYQQKPGKAPKLLIYAASSLQSGVPSRFSGSGSGTDFTLTISSLQPEDFATYYCQQGYVFPLTFGGGTKVEIK
**Q.** Which Kd (HlgB) does the source give for B8 here?
**A.** The Kd was 0.018 nM.

**Q.** What about the Kd (LukD) of the same binder?
**A.** The Kd was 1.7 nM.

**Q.** What about the Kd (LukF) of the same binder?
**A.** Its Kd is less than 0.003 nM.

**Q.** And the Kd (Hla)?
**A.** The Kd was 0.037 nM.

B9: AB-28-7 (antibody, V domains shown)
VH: QVQLQESGPGLVKPSETLSLTCAVSGYSISSGMGWDWIRQPPGKGREWIGSIDQRGSTYYNPSLEGRATISVDTSKNQFSLKLSSVTAADTAVYYCARDAGHGVDMDVWGKGTTVTVSS
VL: DIQMTQSPSSVSASVGDRVTITCRASQGISRWLAWYQQKPGKAPKLLIYAASSLQSGVPSRFSGSGSGTDFTLTISSLQPEDFATYYCQQGYVFPLTFGGGTKVEIK
**Q.** B9 was tested. Which Kd (HlgB) did it give?
**A.** Its Kd is less than 0.002 nM.

**Q.** And the Kd (LukD)?
**A.** Its Kd is 0.29 nM.

**Q.** What about the Kd (LukF) of the same binder?
**A.** Its Kd is 0.052 nM.

**Q.** And the Kd (Hla)?
**A.** The Kd was less than 0.002 nM.

B10: AB-28-12 (antibody, V domains shown)
VH: QVQLQESGPGLVKPSETLSLTCAVSGYSISSGMGWDWIRQPPGKGREWIGSIDQRGSTYYNPSLEGRVTISVDTSKNQFSLKLSSVTAADTAVYYCARDAGHGVDMDVWGKGTTVTVSS
VL: DIQMTQSPSSVSASVGDRVTITCRASQGISRWLAWYQQKPGKAPKLLIYAASSLQSGVPSRFSGSGSGTDFTLTISSLQPEDFATYYCQQGYVFPLTFGGGTKVEIK
**Q.** For B10, which Kd (HlgB) is on record?
**A.** The Kd was less than 0.002 nM.

**Q.** What about the Kd (LukD) of the same binder?
**A.** The Kd was 0.46 nM.

**Q.** What about the Kd (LukF) of the same binder?
**A.** The Kd was 0.063 nM.

**Q.** What about the Kd (Hla) of the same binder?
**A.** Its Kd is less than 0.002 nM.

B11: AB-28-5 (antibody, V domains shown)
VH: QVQLQESGPGLVKPSETLSLTCAVSGYSISSGMGWGWIRQPPGKGLEWIGRVDQRGSTYYNPSLKSRVTISVDTSKNQFSLKLSSVTAADTAVYYCARDAGHGVDMDVWGKGTTVTVSS
VL: DIQMTQSPSSVSASVGDRVTITCRASQGISRWLAWYQQKPGKAPKLLIYAASSLQSGVPSRFSGSGSGTDFTLTISSLQPEDFATYYCQQGYVFPLTFGGGTKVEIK
**Q.** For B11, which Kd (HlgB) is on record?
**A.** Its Kd is 0.16 nM.

**Q.** What about the Kd (LukD) of the same binder?
**A.** Its Kd is 0.16 nM.

**Q.** What about the Kd (Hla) of the same binder?
**A.** Its Kd is 0.03 nM.

B12: AB-28-10 (antibody, V domains shown)
VH: QVQLQESGPGLVKPSETLSLTCAVSGYSISSGMGWGWIRQPPGKGLEWIGSIDQRGSTYYNPSLKSRVTISVDTSKNQFSLKLSSVTAADTAVYYCARDAGHAVDMDVWGKGTTVTVSS
VL: DIQMTQSPSSVSASVGDRVTITCRASQGISRWLAWYQQKPGKAPKLLIYAASSLQSGVPSRFSGSGSGTDFTLTISSLQPEDFATYYCQQGYVFPLTFGGGTKVEIK
**Q.** How did the Kd (HlgB) turn out when B12 was run?
**A.** The Kd was 0.006 nM.

**Q.** And the Kd (LukD)?
**A.** Its Kd is 0.45 nM.

**Q.** What about the Kd (LukF) of the same binder?
**A.** The Kd was 0.017 nM.

**Q.** And the Kd (Hla)?
**A.** The Kd was less than 0.002 nM.
